Data on one molecule can be found in article PMC11529722 (Science Advances, 2024).

This assay has as its target valosin-containing protein (VCP), histidine-tagged (UniProt P55072 1-806). Description: BLI. For orientation: Biolayer interferometry detects binding as a change in optical thickness at a sensor tip.

valosin-containing protein (VCP), histidine-tagged, sequence (P55072 whole entry): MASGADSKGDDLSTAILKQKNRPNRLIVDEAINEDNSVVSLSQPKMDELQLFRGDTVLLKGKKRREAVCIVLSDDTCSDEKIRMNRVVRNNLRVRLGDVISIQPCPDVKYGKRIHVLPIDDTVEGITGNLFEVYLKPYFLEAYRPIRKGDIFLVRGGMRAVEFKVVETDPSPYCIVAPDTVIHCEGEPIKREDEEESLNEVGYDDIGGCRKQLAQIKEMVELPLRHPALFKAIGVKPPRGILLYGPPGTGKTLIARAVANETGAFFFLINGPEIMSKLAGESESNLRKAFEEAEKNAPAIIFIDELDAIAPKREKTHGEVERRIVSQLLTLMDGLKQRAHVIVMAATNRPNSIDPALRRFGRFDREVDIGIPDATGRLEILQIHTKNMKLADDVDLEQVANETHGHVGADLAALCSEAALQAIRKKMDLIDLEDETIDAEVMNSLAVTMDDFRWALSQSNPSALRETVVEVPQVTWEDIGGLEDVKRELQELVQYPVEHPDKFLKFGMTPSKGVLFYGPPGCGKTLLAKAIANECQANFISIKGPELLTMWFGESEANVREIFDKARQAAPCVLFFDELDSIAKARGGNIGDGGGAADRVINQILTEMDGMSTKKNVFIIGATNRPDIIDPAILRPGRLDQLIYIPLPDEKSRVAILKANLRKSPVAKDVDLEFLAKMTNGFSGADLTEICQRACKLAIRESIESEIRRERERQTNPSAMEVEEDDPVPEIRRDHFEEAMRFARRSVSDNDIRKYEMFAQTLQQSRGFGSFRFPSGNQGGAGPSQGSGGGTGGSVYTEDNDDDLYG

B1: P1, protein-like polymer (PLP) with HVLVMSATRR peptide side chains (other)
peptide: HVLVMSATRR
modifications: N terminus conjugated to N-(hexanoic acid)-exo-5-norbornene-2,3-dicarboximide, polymerised through the norbornene (ROMP) into the polymer backbone
Usually Kd stands for the constant that tells how readily two partners part at equilibrium. Lower therefore signals a tighter complex. One may read the koff as the first-order rate constant of dissociation. Low readings indicate slow dissociation, high ones fast dissociation. As for B1, the Kd was found to be 92 nM and the koff is 2.5e-05 s⁻¹.
